Results on one molecule are retold here after patent publication US20250250350A1 (ARSENAL BIOSCIENCES, published 2025).

For one experiment, the target named is T1, GP2 on K562-GP2 cells (UniProt P55259 29-512, limits assumed).
T1 construct: whole, on cells
Description: 24 h co-culture of MSLN CAR (LG1 CAR) T cells with K562-GP2 target cells, end-point luciferase cytotoxicity, RNP-only T cells as control. An excerpt: (§1) T cells from four donors were engineered to constitutively express the MSLN CAR (LG1 CAR) using the manufacturing process described in Example 1 and were frozen and cryobanked at Day 9 after initial activation. […] On the day of the assay, MSLN CAR and RNP only control T cells were counted and resuspended in medium without IL-7 and IL-15 and serially diluted and added to 96-well flat-bottom, white-walled assay plates. The serial dilution of T cells results in the following co-culture effector:target (E:T) ratios once 1e4 THP-1 or K562 (negative control), K562-MSLN (positive control) and K562-GP2 target cells were added/well: 3:1, 1:1, 1:3 in technical duplicates. Prepared plates with T cells and target cells were incubated at 37° C. for 24 hours with a breathable membrane on each plate. Cytotoxicity at the end of the 24 hour co-culture was measured using an end-point luciferase assay.

For another experiment, the target named is T2, ALPG-AF647 (human, UniProt P10696, AF647 fluorophore label, site not given).
T2 construct: soluble labelled staining reagent; Same protein as m5, here as a soluble staining reagent
Description: flow cytometry, primary T cells with constitutive CAR and no PrimeR, stained with ALPG-AF647 and MSLN-Bio / streptavidin-PE; reagent concentration not given. On the technique in general: A flow cytometer gives signals particle by particle.

For another experiment, the target named is T3, SLC2A9 on THP-1 cells (UniProt Q9NRM0 1-540, limits assumed).
T3 construct: whole, on cells; also called SLC2A9+ cells (THP-1 cells)
T3 sequence (looked up): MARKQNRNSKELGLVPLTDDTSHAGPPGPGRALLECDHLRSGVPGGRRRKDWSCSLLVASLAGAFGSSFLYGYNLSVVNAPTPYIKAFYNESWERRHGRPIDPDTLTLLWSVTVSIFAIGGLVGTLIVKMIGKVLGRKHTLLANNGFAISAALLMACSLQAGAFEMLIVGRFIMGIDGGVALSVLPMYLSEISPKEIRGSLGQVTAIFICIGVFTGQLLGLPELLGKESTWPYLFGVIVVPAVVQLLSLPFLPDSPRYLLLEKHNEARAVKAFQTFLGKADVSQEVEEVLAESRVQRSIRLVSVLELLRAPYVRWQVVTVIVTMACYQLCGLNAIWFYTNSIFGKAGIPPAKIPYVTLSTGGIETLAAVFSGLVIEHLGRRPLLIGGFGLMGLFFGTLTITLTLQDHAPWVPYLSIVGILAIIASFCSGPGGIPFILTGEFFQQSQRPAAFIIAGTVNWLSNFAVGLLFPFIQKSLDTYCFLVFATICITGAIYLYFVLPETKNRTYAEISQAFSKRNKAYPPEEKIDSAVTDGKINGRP
Description: 24 h co-culture of MSLN CAR (LG1 CAR) T cells with THP-1 (SLC2A9+) target cells, end-point luciferase cytotoxicity, RNP-only T cells as control.
Text: as §1

T2 sequence (P10696 20-503 limits assumed): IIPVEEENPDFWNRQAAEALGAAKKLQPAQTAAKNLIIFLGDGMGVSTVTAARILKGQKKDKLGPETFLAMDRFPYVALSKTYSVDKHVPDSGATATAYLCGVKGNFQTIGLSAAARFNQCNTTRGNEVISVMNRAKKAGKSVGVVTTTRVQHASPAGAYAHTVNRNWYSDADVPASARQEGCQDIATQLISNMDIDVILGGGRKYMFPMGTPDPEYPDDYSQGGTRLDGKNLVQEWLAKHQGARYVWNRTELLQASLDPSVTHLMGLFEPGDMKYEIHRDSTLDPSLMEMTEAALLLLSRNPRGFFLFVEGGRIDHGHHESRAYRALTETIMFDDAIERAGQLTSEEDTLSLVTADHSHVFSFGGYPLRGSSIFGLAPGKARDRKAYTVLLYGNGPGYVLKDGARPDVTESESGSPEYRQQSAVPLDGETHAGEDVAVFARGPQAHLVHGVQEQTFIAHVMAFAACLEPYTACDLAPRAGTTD
T1 sequence (P55259 29-512 limits assumed): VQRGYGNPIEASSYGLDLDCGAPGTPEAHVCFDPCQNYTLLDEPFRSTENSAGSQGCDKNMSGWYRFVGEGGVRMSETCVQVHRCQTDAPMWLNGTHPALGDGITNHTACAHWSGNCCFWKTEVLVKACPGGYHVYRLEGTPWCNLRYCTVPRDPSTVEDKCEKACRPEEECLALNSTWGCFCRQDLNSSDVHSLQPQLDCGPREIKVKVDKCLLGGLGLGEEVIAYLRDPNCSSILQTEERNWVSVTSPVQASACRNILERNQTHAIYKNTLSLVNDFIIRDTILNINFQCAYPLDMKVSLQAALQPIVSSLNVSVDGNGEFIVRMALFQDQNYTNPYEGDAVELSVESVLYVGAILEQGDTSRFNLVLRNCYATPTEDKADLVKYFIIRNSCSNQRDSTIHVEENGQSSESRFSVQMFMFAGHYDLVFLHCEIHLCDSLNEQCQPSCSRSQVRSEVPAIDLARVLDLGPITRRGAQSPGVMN

B1: MSLN CAR (LG1 CAR) (other)
chain: QLQLQESGPGLVKPSETLSLTCTVSGGSISNSYYWGWIRQPPGKGLEWIGSIYHSGNTYYNPSLKSRVTISVDTSKNQFSLKLSSVTAADTAVYYCVTQDGVGATTTEEYWGQGTLVTVSSAAATTTPAPRPPTPAPTIASQPLSLRPEACRPAAGGAVHTRGLDFACDIYIWAPLAGTCGVLLLSLVITLYCKRGRKKLLYIFKQPFMRPVQTTQEEDGCSCRFPEEEEGGCELRVKFSRSADAPAYQQGQNQLYNELNLGRREEYDVLDKRRGRDPEMGGKPRRKNPQEGLYNELQKDKMAEAYSEIGMKGERRRGKGHDGLYQGLSTATKDTYDALHMQALPPR
notes: Chimeric antigen receptor on engineered primary human T cells; also called MSLN LG1 CAR
Consider B1, for which the binding result with GP2 on K562-GP2 cells was “no binding (tested: E:T 3:1)”; with ALPG-AF647, “no binding”; with SLC2A9 on THP-1 cells it was “no binding (tested: E:T 3:1)”.
